Assay results taken from US20060198894A1, “Stabilized, solid-state polypeptide particles” (priority 2002, published 2006).
Where no end group is shown, it is not given here.

How the values were obtained:
Format in all cases: physicochemical
[1] = Aggregation / dimer formation in solid-state PACAP particles stored at 60° C. for two months, SEC; conditions: for dimer formation: two months of storage at 60° C.
Description: (§1) The effect of pH on the stability of PACAP molecules over time was evaluated. In order to make such an evaluation, PACAP raw material was first dissolved in H2O in three different solutions, with the first solution having a pH of 2, the second solution having a pH of 4, and the third solution having a pH of 6. The pH of each solution was adjusted to the desired value using diluted HCl. Each of the three solutions was placed in lyophilization vials, and solid-state PACAP particles were produced from each of the three solutions through the lyophilization process already described herein. Particles from each of the three solutions were then stored for two months at 60° C., and the stability of the PACAP included in the solid-state particles was thereafter evaluated using RP-HPLC and SEC.
(§2) Solid-state PACAP particles were prepared from each of the eight solutions through lyophilization, as has already been described, and solid-state PACAP particles produced from each of the eight solutions were then stored at 60° C. for two months. After exposing the various solid-state PACAP particles to a temperature of 60° C. over two months, the stability of the PACAP included in various particles was evaluated using RP HPLC and SEC processes.
PACAP particles containing histidine buffer (Sigma) and PACAP particles containing histidine buffer in combination with calcium chloride (CaCl2, J T Baker), sucrose and sodium dodecyl sulfate (SDS, Pierce) were prepared and the stabilization of PACAP provided by such particles was evaluated. To prepare the PACAP particles evaluated, six different aqueous solutions were prepared. Each solution included a desired amount of PACAP dissolved therein, and the pH of each of the six solutions prepared was adjusted to 6 by the addition of diluted HCl. The first aqueous solution was prepared without additives (histidine buffer, CaCl2, sucrose, or SDS). The second aqueous solution was prepared with a 10 mM concentration of histidine buffer. The third aqueous solution was formulated with a 10 mM concentration of histidine buffer as well as a 10 mM concentration of CaCl2. The fourth aqueous solution was formulated with a 10 mM concentration of histidine buffer and included sucrose at a 0.5/1 weight ratio (sucrose/PACAP) relative to PACAP. The fifth aqueous solution was prepared with a 10 mM concentration of histidine buffer, a 10 mM concentration of CaCl2, and an amount of sucrose providing a 0.5/1 weight ratio (sucrose/PACAP) relative to PACAP. The sixth aqueous solution was formulated with a 10 mM concentration of histidine buffer and 0.02 wt % SDS. Solid-state PACAP particles were then produced from each of the six solutions using the lyophilization process already described herein. The PACAP particles produced from each solution were then stored at 60° C. for two months, and the stability of the PACAP contained within the various different particles was evaluated using RP-HPLC and SEC processes after such storage. […] In addition, sucrose, CaCl2 and SDS further stabilized the peptide, providing roughly 14 fold to 20 fold decreases in aggregate formation.
To evaluate the stabilizing effect of CaCl2 in PACAP particles prepared at acidic and near neutral pH, four different types of particles were formulated, stored at 60° C. for two months, and then analyzed for PACAP degradation. The four different particle formulations were prepared from four different aqueous solutions. Each of the four solutions included a desired amount of PACAP dissolved therein and the pH of each solution was adjusted to the desired level using diluted HCl. The first aqueous solution was formulated without additives (histidine or CaCl2), and the pH of the first solution was adjusted to 2. The second aqueous solution was formulated with a 10 mM concentration of CaCl2, and the pH of the second solution was adjusted to 2. […]

[2] = Total degradation of lyophilized PACAP with excipients stored at 2-8, 40 and 60° C. up to 3 months, RP-HPLC
Description: (§3) The preliminary findings from the processing study led to the evaluation of the stabilization effect of sugar (sucrose) and nonionic surfactant (Tween 80) on PACAP lyophiles and suspensions. In order to carry out the evaluation, samples were prepared with PACAP in 10 mM NH4OAc (pH6.4) at 3 levels of Tween 80 (0, 0.05, 0.2 wt %) and sucrose (0, 0.5/1, 1/1, w/w). A solution of PACAP in 10 mM of histidine (pH 6.4) and sodium succinate (pH 5.6) was also prepared. Each of the PACAP solutions were lyophilized to obtain reconstituted, solid-state PACAP particles, and individual vials were provided 3.3 mg samples of the material reconstituted from each of the solutions, with the samples containing (1) no additive, (2) 0.2 wt % Tween 80, (3) 0.2 wt % Tween 80+0.5:1, w/w sucrose, and (4) 1:1, w/w sucrose. The various 3.3 mg samples were manually mixed with LL/GML/PVP and BA/PVP to provide suspension formulations having about 3% PACAP content, and the suspension formulations were subjected to 4 hours of incubation at 65° C. After the initial incubation period, the various suspension formulations were stored as described below and evaluated by RP-HPLC and SEC.
(§4) Solid-state PACAP particles were prepared via a lyophilization process (FTS Duro stop) from three different polypeptide solutions prepared in NH4OAc buffer at pH6. Each of the three different solutions contained a different amount of sucrose, with the first containing no sucrose, the second containing a weight ratio of sucrose to PACAP of 0.5/1, and the third containing a weight ratio of sucrose to PACAP 1/1. Solid-state PACAP particles prepared from each of the three solutions were stored at control temperatures ranging from 2° C. to 8° C., a temperature approximating physiologic temperature (40° C.), and a temperature exceeding physiologic temperature (60° C.). The stability of the PACAP contained within each group of solid-state PACAP particles was assessed at 24 days and 3 months. To assess PACAP stability within each group of particles, the particles were reconstituted in water and analyzed by reversed-phase RP-HPLC (acetonitrile gradient elution with mobile phase containing 0.1% trifluoroacetic acid, and a UV detection at 214 nm) and size exclusion HPLC (SEC, isocratic elution, 30% acetonitrile mixed with 70% of aqueous solution containing 0.1% trifluoroacetic acid and 200 mM of sodium chloride, and a UV detection at 220 nm).

[3] = Aggregation of lyophilized PACAP and PACAP suspensions with excipients stored at 2-8, 40 and 60° C. up to 3 months, SEC
Description: as §3, §4

[4] = Stability of solid-state PACAP particles stored at 60° C. for two months, RP-HPLC (recovery / total degradation)
Description: as §1, §2
PACAP particles containing histidine buffer (Sigma) and PACAP particles containing histidine buffer in combination with calcium chloride (CaCl2, J T Baker), sucrose and sodium dodecyl sulfate (SDS, Pierce) were prepared and the stabilization of PACAP provided by such particles was evaluated. To prepare the PACAP particles evaluated, six different aqueous solutions were prepared. Each solution included a desired amount of PACAP dissolved therein, and the pH of each of the six solutions prepared was adjusted to 6 by the addition of diluted HCl. The first aqueous solution was prepared without additives (histidine buffer, CaCl2, sucrose, or SDS). The second aqueous solution was prepared with a 10 mM concentration of histidine buffer. The third aqueous solution was formulated with a 10 mM concentration of histidine buffer as well as a 10 mM concentration of CaCl2. The fourth aqueous solution was formulated with a 10 mM concentration of histidine buffer and included sucrose at a 0.5/1 weight ratio (sucrose/PACAP) relative to PACAP. […] The PACAP particles produced from each solution were then stored at 60° C. for two months, and the stability of the PACAP contained within the various different particles was evaluated using RP-HPLC and SEC processes after such storage. […]
To evaluate the stabilizing effect of CaCl2 in PACAP particles prepared at acidic and near neutral pH, four different types of particles were formulated, stored at 60° C. for two months, and then analyzed for PACAP degradation. […]

[5] = Stability of PACAP suspended in suspension vehicles at elevated temperature, RP-HPLC and SEC
Excerpt: Due to the nature of the suspension vehicles used in implantable drug delivery systems, mixing of the suspension formulation bulk and subsequent loading of the suspension formulation into the implantable systems are often conducted at elevated temperatures. To evaluate the stability of PACAP analog (or simply “PACAP”) suspended in various suspension vehicles at elevated temperatures, unprotected, lyophilized PACAP was suspended in four different suspension vehicles (LL/GML/PVP, BA/PVP, EHL/PVP, and PEG/PVP). To suspend the PACAP into the suspension vehicles 3.3 mg PACAP acetate was manually mixed into each of the different suspensions to achieve a PACAP content of approximately 3%. The stability of the PACAP suspension formulations was then evaluated after incubation at 65° C. for four hours.
The PACAP suspensions were then further incubated at 37° C. and 65° C. an additional 17 days. […] (Table 3). […] In addition, other chemical degradation contributed to the loss of lyophilized PACAP.

[6] = Example 2 lyophilized formulations, except samples containing 1:1 w/w sucrose
[7] = lyophilized PACAP, ammonium acetate app. pH 6.4, 40° C. for 3 months (FIG. 1)

PACAP analog: synthetic PACAP-R3 agonist analog manufactured by Bayer; 31 amino acid sequence HSDAVFTDNYTRLRKQVAAKKYLQSIKNKRY (SEQ. I.D. NO. 1) (HSDAVFTDNYTRLRKQVAAKKYLQSIKNKRY; ends and bridges not checked)
dimer formation ([1]; particles at acidic pH with Ca2+/PACAP analog 4/1 molar ratio): 0.8% | dimer formation ([1]; particles at acidic pH with trehalose/PACAP analog 0.55/1 w/w): 0.7% | decrease in aggregate formation ([1]; particles from pH 6 solution with 10 mM histidine buffer vs no additives, 60° C. for two months): roughly 6 fold | dimer formation ([1]; particles lyophilized from stabilizing solution of apparent pH 2 (diluted HCl), no excipient): 1.1% | improvement in preventing aggregate formation ([1]; particles prepared at pH 6 with sucrose (7.3 molar equivalent), 60° C. for two months): ~6 fold | improvement in preventing aggregate formation ([1]; particles prepared at pH 6 with trehalose (7.3 molar equivalent), 60° C. for two months): ~4 fold | rate of total degradation at 60° C. relative to 40° C. [2, 6]: about 5 times | rate of total degradation (RP HPLC) at 60° C. relative to 40° C. ([2]; Example 3, NH4OAc buffer pH6, except particles with PACAP to sucrose weight ratio of 1/1): about 5 times | total rate of degradation at 60° C. relative to 40° C. ([2]; PACAP analog contained within particles): approximately five times higher | time stable ([2]; lyophilized PACAP without a stabilizer, at 4° C.): at least 3 months | estimated total degradation ([2]; lyophilized PACAP, apparent pH 6.4 in ammonium acetate, equal amount of sucrose (w/w), in 6 months at 40° C.): 8.4% | rate of aggregation at 60° C. relative to 40° C. [3, 6]: approximately 10 times | rate of aggregation (SEC) at 60° C. relative to 40° C. ([3]; Example 3, NH4OAc buffer pH6, sucrose 0, 0.5/1, 1/1, all formulations tested): 10 times | effect of sucrose on aggregate formation in suspensions ([3]; PACAP suspensions in BA/PVP and LL/GML/PVP, 40° C.): suppressed aggregate formation | effect of Tween 80 on aggregation [3, 7]: no added effect | effect of sucrose on aggregation [3, 7]: suppressed PACAP aggregation | effect of histidine and sodium succinate on aggregate formation ([3]; lyophilized formulations, 40° and 60° C. over 3 months): better stabilizers than ammonium acetate | rate of aggregation or dimerization at 60° C. relative to 40° C. ([3]; solid-state PACAP particles): ten times higher | effect of acidic pH on stability ([4]; particles lyophilized at pH 2, 4, 6 (HCl), two months at 60° C. (FIG. 9)): greatly improved stability | effect of trehalose and methyl MP on stability ([4]; particles prepared at pH2, relative to pH2 without stabilizing sugar, 60° C. for two months): additive stability | effect of sucrose on stability ([4]; particles prepared at pH2 with sucrose, 60° C. for two months): significant destabilizing effect | effect of CaCl2 on stability ([4]; particles with 10 mM CaCl2 at both pH 2 and 6, 60° C. for two months): further improved the stability | stability of PACAP suspensions ([5]; further incubated at 37° C. an additional 17 days): marginal stability loss | stability of PACAP suspensions ([5]; further incubated at 65° C. an additional 17 days): relatively more aggressive degradation | stability of PACAP suspension formulations ([5]; unprotected lyophilized PACAP, about 3%, in LL/GML/PVP, BA/PVP, EHL/PVP, PEG/PVP, 65° C. for four hours): stable
